Results: US20230357340A1 (APRILBIO, published 2023)

Assays:
[1] = target: T1, recombinant human IL-18 (human, UniProt Q14116 37-193); test: SPR KD of this filing compared with a literature BIAcore value (Kim et al. 2000)
T1 construct: also called recombinant human IL-18 protein
T1 sequence (looked up): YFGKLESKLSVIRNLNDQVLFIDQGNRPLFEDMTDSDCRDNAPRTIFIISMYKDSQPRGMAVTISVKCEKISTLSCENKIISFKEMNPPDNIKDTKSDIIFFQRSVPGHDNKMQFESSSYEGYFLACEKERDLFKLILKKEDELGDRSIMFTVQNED
Method: (§1) Surface Plasmon Resonance (SPR) assay was performed by Wide River Institute of Immunology (Seoul National University, Seoul, KR) to measure the binding affinity, equilibrium dissociation constant (KD), of APB-R3 to recombinant human IL-18 (Prospec) and human serum albumin (Sigma) by using BiaCore™ T200 (GE Healthcare), Sensor Chip CM5 (Cytiva), and HBS-EP+(Cytiva), as a running buffer. APB-R3 was immobilized by using Amine Coupling Kit (GE Healthcare) in pH 4.5 and the analyte of human IL-18 was diluted and prepared at 62.5 nM, 31.3 nM, 15.6 nM, 7.8 nM, 3.9 nM, and 1.95 nM, and the analyte of human serum albumin was diluted and prepared at 1,250 nM, 625 nM, 313 nM, 156 nM, 78 nM, 39 nM, and 19.5 nM. Kinetics between APB-R3 and human IL-18 or human serum albumin was analyzed by 1:1 binding fitting.

[2] = target: T1, recombinant human IL-18; test: SPR, BiaCore T200, APB-R3 amine-coupled on CM5 chip, human IL-18 as analyte, 1:1 fit
Method: as §1

[3] = target: T2, recombinant mouse IL-18 protein (mouse, UniProt P70380 36-192); test: cell-based or functional assay
T2 sequence (looked up): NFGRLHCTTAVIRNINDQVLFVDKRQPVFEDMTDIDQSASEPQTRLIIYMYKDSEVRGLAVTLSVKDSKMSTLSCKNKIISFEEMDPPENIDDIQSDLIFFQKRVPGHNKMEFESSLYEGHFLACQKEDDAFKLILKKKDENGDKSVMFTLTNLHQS

[4] = target: T3, human serum albumin (human, UniProt P02768 25-609); test: SPR, BiaCore T200, APB-R3 amine-coupled on CM5 chip, human serum albumin as analyte, 1:1 fit
T3 construct: also called HSA; Human serum albumin (Sigma)
Method: as §1

[5] = target: T1, recombinant human IL-18; test: cell-based or functional assay

T3 sequence (P02768 25-609 limits assumed): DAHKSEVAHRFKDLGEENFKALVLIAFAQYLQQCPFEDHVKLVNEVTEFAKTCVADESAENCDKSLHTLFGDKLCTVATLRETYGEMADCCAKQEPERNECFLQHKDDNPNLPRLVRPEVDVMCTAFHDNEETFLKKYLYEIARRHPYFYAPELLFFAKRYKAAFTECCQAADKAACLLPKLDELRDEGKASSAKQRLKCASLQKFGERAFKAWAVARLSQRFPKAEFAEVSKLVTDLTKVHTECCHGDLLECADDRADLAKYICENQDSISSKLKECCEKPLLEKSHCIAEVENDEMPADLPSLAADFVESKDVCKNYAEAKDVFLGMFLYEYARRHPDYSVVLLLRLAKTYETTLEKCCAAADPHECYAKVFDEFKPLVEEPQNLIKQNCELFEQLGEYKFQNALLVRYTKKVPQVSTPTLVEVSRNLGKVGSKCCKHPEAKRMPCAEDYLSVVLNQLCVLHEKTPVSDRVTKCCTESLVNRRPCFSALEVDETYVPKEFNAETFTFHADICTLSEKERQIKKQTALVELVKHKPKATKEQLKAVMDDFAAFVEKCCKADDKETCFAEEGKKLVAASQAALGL

B1: APB-R3 (recombinant fusion protein of anti-serum albumin Fab SL335 and human IL-18BP; heavy chain SL335H-peptide linker-IL-18BP, light chain SL335L) (other)
heavy: QVQLVQSGGGPVKPGGSLRLSCAASGFMFRAYSMNWVRQAPGKGLEWVSSISSSGRYIHYADSVKGRFTISRDNAKNSLYLQMNSLRAEDTAVYYCARETVMAGKALDYWGQGTLVTVSSASTKGPSVFPLAPSSKSTSEGTAALGCLVKDYFPEPVTVSWNSGALTSGVHTFPAVLQSSGLYSLSSVVTVPSSSLGTQTYICNVNHKPSNTKVDKKVEPKSSGSAPAPGSTPVSQTTTAATASVRSTKDPCPSQPPVFPAAKQCPALEVTWPEVEVPLNGTLSLSCVACSRFPNFSILYWLGNGSFIEHLPGRLWEGSTSRERGSTGTQLCKALVLEQLTPALHSTNFSCVLVDPEQVVQRHVVLAQLWAGLRATLPPTQEALPSSHSSPQQQG
light: DIVLTQSPGTLSLSPGETATLSCRASQSVGSNLAWYQQKPGQAPRLLIYGASTGATGVPARFSGSRSGTDFTLTITSLQPEDFATYYCQQYYSFLAKTFGQGTQLEIKRTVAAPSVFIFPPSDEQLKSGTASVVCLLNNFYPREAKVQWKVDNALQSGNSQESVTEQDSKDSTYSLSNTLTLSKADYEKHKVYACEVTHQGLSSPVTKSFNRGES
notes: The IL-18BP part is glycosylated; also called APB-R3 protein
fold higher binding affinity than human IL-18BPa (literature KD 399 pM) [1]: ~6 fold | Kd [2]: 0.0609 nM | koff [2]: 2.48e-05 s⁻¹ | kon [2]: 406000 M⁻¹ s⁻¹ | IC50 (read off the curve); mouse IL-18-induced IFN-γ secretion by mouse CD4+ T cells [3]: ~0.4 nM | Kd [4]: 16.8 nM | koff [4]: 0.00157 s⁻¹ | kon [4]: 93800 M⁻¹ s⁻¹ | IC50 of inhibition of IL-18-induced IFN-γ production in KG-1 cells [5]: 0.0419 nM
